In the supplement of paper PMC9876800:

Tested on: peptide library, one residue held at a place counted from the S/T acceptor
Assay: relative phosphorylation of the sub-library (ratio to the mean residue at this position); higher = residue favoured
Outline: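 Relative sub-library phosphorylation, a ratio to the mean residue at that position, was obtained by phosphorimaging and densitometry of spots on streptavidin membranes. Before capture, purified recombinant kinases were incubated for 90 min under kinase-specific conditions with 50 μM biotinylated degenerate peptide sub-libraries and 50 μM ATP spiked with γ-32P-ATP. Each sub-library fixed one residue at one position around a central Ser/Thr.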

Chain of MAPK8, construct: aa1-384, human (P45983 1-384, looked up): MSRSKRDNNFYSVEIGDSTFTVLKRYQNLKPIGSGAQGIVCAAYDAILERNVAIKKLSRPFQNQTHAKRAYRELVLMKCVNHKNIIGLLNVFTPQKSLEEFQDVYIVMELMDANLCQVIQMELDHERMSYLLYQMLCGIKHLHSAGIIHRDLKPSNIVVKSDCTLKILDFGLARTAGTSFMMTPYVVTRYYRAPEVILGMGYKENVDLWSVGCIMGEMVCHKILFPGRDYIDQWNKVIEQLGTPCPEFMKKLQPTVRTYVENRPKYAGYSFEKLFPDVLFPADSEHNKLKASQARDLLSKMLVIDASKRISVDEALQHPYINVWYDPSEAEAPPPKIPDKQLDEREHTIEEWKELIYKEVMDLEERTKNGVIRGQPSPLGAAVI
Chain of MAP3K15, construct: aa631-922, human (Q6ZN16 631-922, looked up): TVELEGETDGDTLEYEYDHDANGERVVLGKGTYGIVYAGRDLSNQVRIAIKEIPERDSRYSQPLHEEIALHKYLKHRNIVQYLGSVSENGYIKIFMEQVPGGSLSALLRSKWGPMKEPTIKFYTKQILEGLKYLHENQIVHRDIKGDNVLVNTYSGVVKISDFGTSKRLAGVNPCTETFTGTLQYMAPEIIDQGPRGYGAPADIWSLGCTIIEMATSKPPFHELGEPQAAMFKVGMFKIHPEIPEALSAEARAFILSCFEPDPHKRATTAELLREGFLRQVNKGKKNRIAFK

MAP3K15, construct: aa631-922, human (from UniProt Q6ZN16)
relative phosphorylation
Conditions | at +1 | at +2 | at +3 | at +4 | at -1 | at -2 | at -3 | at -4 | at -5
A fixed | 0.514 | 0.74 | 1.02 | 0.926 | 1.01 | 1.79 | 1.14 | 1.02 | 0.99
D fixed | 0.2 | 0.473 | 0.377 | 0.494 | 0.459 | 0.498 | 0.88 | 0.771 | 0.79
E fixed | 0.257 | 0.337 | 0.401 | 0.534 | 0.471 | 0.513 | 0.73 | 0.739 | 0.743
F fixed | 1.94 | 1.79 | 0.942 | 0.898 | 0.745 | 0.735 | 0.771 | 0.855 | 1.1
G fixed | 0.39 | 0.733 | 1.07 | 1.07 | 2.13 | 1.26 | 1.04 | 1.29 | 1.24
H fixed | 1.08 | 1.01 | 1.04 | 1.04 | 0.94 | 0.852 | 1.07 | 0.963 | 1.17
I fixed | 1.94 | 0.567 | 1.09 | 1.13 | 0.415 | 0.859 | 0.687 | 0.668 | 0.761
K fixed | 0.39 | 1.48 | 1.14 | 1.82 | 1.43 | 0.864 | 1.18 | 1.06 | 1.05
L fixed | 1.41 | 0.76 | 1.01 | 0.885 | 0.828 | 0.983 | 0.799 | 0.788 | 0.759
M fixed | 1.18 | 0.952 | 1.02 | 0.926 | 0.963 | 1.07 | 0.837 | 0.896 | 0.929
N fixed | 0.439 | 0.782 | 0.971 | 0.91 | 1.28 | 1.26 | 1.18 | 1.19 | 0.988
P fixed | 0.352 | 0.676 | 1.08 | 0.971 | 1.15 | 1.63 | 1.6 | 1.37 | 1.2
Q fixed | 0.604 | 0.79 | 0.917 | 1.1 | 1.07 | 1.13 | 1.26 | 1.1 | 1.08
R fixed | 0.481 | 1.7 | 1.39 | 1.2 | 1.73 | 0.885 | 1.21 | 1.15 | 1.03
V fixed | 1.84 | 0.617 | 1.12 | 0.866 | 0.524 | 1.13 | 0.776 | 0.888 | 1.24
W fixed | 1.83 | 1.02 | 1.19 | 1.15 | 0.745 | 0.693 | 0.917 | 1.08 | 1.02
Y fixed | 2.16 | 2.58 | 1.24 | 1.07 | 1.12 | 0.848 | 0.925 | 1.18 | 0.915
pThr fixed | 0.588 | 0.497 | 0.73 | 0.394 | 0.639 | 1.06 | 1.04 | 0.928 | 1.09
pTyr fixed | 0.529 | 0.403 | 0.951 | 0.582 | 0.832 | 0.888 | 1.02 | 0.936 | 1.2

MAPK8, construct: aa1-384, human (from UniProt P45983)
relative phosphorylation
Conditions | at +1 | at +2 | at +3 | at +4 | at -1 | at -2 | at -3 | at -4 | at -5
A fixed | 0.237 | 0.912 | 1.46 | 1.17 | 1.03 | 2.05 | 1.17 | 1.13 | 1.18
D fixed | 0.295 | 1.06 | 1.86 | 1.25 | 0.995 | 0.9 | 1.65 | 1.61 | 1.42
E fixed | 0.222 | 0.814 | 1.86 | 1.34 | 0.888 | 0.556 | 1.5 | 1.41 | 1.06
F fixed | 0.309 | 0.673 | 0.845 | 0.778 | 0.6 | 0.456 | 0.663 | 0.858 | 0.94
G fixed | 0.676 | 1.22 | 1.49 | 1.07 | 1.31 | 0.724 | 1.1 | 1.03 | 1.06
H fixed | 0.21 | 0.841 | 1.02 | 1.05 | 0.938 | 0.446 | 0.937 | 1.07 | 1.07
I fixed | 0.247 | 1.67 | 0.698 | 1.11 | 0.674 | 1.41 | 0.797 | 0.728 | 0.763
K fixed | 0.195 | 0.501 | 0.528 | 0.698 | 0.95 | 0.348 | 0.571 | 0.75 | 0.791
L fixed | 0.322 | 1.45 | 0.881 | 1.02 | 1.45 | 2.55 | 0.898 | 0.753 | 0.685
M fixed | 0.25 | 2 | 0.922 | 1 | 1.43 | 1.3 | 0.984 | 0.962 | 0.744
N fixed | 0.191 | 0.793 | 0.84 | 0.819 | 0.861 | 0.469 | 1.06 | 0.846 | 0.826
P fixed | 12.8 | 0.568 | 0.629 | 1.57 | 1.52 | 2.46 | 1.33 | 1.25 | 1.39
Q fixed | 0.193 | 0.851 | 0.826 | 0.913 | 1.37 | 0.665 | 1.01 | 1.08 | 1.21
R fixed | 0.18 | 0.575 | 0.619 | 0.547 | 0.886 | 0.484 | 0.879 | 0.778 | 0.974
V fixed | 0.254 | 1.87 | 0.809 | 0.909 | 0.844 | 1.48 | 0.91 | 0.891 | 0.849
W fixed | 0.196 | 0.53 | 0.878 | 0.937 | 0.582 | 0.338 | 0.727 | 0.993 | 0.858
Y fixed | 0.213 | 0.663 | 0.837 | 0.81 | 0.671 | 0.381 | 0.808 | 0.865 | 1.19
pThr fixed | 0.612 | 2.32 | 1.64 | 1.91 | 0.582 | 1.28 | 1.14 | 1.37 | 1.34
pTyr fixed | 0.866 | 1.99 | 8.3 | 3.22 | 1.84 | 1.25 | 1.58 | 2.57 | 1.93
